Data from publication PMC5429858.

System: EZH2 (recombinant PRC2 complex)
Experiment: pull-down (streptavidin) + western
Conditions: Folding buffer 100 mM KCl, 50 mM Tris-HCl, 5 mM MgCl2, 0.1 mM CaCl2, 0.5 mM ZnCl2 with BSA and RNase inhibitor (pH not given); PNA 30 min 37 C (legend: 1 h …)

HOTAIR full-length lncRNA was tested, and the binding signal (% reduction of binding) was 80.
